The numbers were not newly measured in patent US12150974B2, “Conjugates with inhibitory receptor ligands to induce anergy in insulin-binding B cells” (University of Kansas, priority 2021, dated 2024), which cites them from elsewhere.

In the data set the target is T1, CD20 (Homo sapiens, UniProt P11836).
T1 construct: host or cells: B cells of trial patients (endogenous)
T1 sequence (P11836 1-297): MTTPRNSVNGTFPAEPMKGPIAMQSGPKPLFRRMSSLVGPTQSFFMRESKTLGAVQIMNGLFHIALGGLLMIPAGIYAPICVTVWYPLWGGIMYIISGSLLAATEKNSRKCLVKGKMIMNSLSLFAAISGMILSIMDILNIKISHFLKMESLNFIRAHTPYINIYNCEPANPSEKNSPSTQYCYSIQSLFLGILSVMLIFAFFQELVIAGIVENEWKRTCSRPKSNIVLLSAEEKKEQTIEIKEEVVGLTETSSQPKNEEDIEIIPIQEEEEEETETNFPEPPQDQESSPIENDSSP
Conditions: at 1 year.

As for rituximab, the “clinical outcome in T1D” value is “beta cell preservation”.
